# Measurements: article PMC9143231, “Parapoxvirus Interleukin-10 Homologues Vary in Their Receptor Binding, Anti-Inflammatory, and Stimulatory Activities” (Pathogens, 2022)
# T1: hIL-10R1-Fc chimeric protein (extracellular domain of human IL-10 receptor 1 fused to Fc) (human, UniProt Q13651 22-235)
# T1 construct: human interleukin-10 receptor subunit 1 (IL-10R1), extracellular domain; No catalogue number printed; also called soluble hIL-10R1-Fc fusion protein; source: bought: R&D Systems
# T1 sequence: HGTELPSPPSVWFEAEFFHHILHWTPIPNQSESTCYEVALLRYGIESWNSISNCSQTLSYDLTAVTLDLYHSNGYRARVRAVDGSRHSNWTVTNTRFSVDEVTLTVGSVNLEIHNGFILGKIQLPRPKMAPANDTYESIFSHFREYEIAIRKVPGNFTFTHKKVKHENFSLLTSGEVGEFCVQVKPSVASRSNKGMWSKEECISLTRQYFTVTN
# B1: human interleukin-10, FLAG-tagged (ligand, UniProt P22301 19-178, looked up)
# chain: SPGQGTQSENSCTHFPGNLPNMLRDLRDAFSRVKTFFQMKDQLDNLLLKESLLEDFKGYLGCQALSEMIQFYLEEVMPQAENQDPDIKAHVNSLGENLKTLRLRLRRCHRFLPCENKSKAVEQVKNAFNKLQEKGIYKAMSEFDIFINYIEAYMTMKIRN
# notes: also called hIL-10; human IL-10; not shown: FLAG, C-terminal, kept
# Experiments:
# [1] = molecular target: hIL-10R1-Fc chimeric protein (extracellular domain of human IL-10 receptor 1 fused to Fc) (human) (UniProt Q13651); assay: ELISA; competitive displacement ELISA: hIL-10 (400 ng/mL) coated on Maxisorp wells; serially diluted IL-10 preincubated with 300 ng/mL hIL-10R1-Fc in PBS, 0.4% BSA, 0.02% Tween20 at 25 °C for 1 h, then transferred to the coated wells for 1 h at 25 °C; free hIL-10R1-Fc detected with anti-human IgG
# [2] = molecular target: hIL-10R1-Fc chimeric protein (extracellular domain of human IL-10 receptor 1 fused to Fc) (human) (UniProt Q13651)
# [3] = molecular target: hIL-10R1-Fc chimeric protein (extracellular domain of human IL-10 receptor 1 fused to Fc) (human) (UniProt Q13651); remark: listed apart in the source
# [4] = molecular target: Orf virus interleukin-10, FLAG-tagged (Orf virus); assay: non-reducing SDS-PAGE with anti-FLAG Western blot
# [5] = molecular target: hIL-10R1-Fc chimeric protein (extracellular domain of human IL-10 receptor 1 fused to Fc) (human) (UniProt Q13651); assay: ELISA; […] (400 ng/mL) […]
# [6] = molecular target: Pseudocowpox virus interleukin-10, FLAG-tagged (Pseudocowpox virus); assay: non-reducing SDS-PAGE with anti-FLAG Western blot; purified FLAG-tagged IL-10 mixed with SDS-PAGE sample buffer without DTT, without boiling; bands detected with HRP-conjugated anti-FLAG M2
# [7] = molecular target: T1, hIL-10R1-Fc chimeric protein …; assay: ELISA; competitive displacement ELISA: hIL-10 (400 ng/mL) coated on Maxisorp wells; serially diluted IL-10 preincubated with 300 ng/mL hIL-10R1-Fc in PBS, 0.4% BSA, 0.02% Tween20 at 25 °C for 1 h, then transferred to the coated wells for 1 h at 25 °C; free hIL-10R1-Fc detected with anti-human IgG; conditions: both partners purified
molecule,measurement,setting,value
"Bovine papular stomatitis virus interleukin-10, FLAG-tagged (ligand)","Emax (Δ%) of hIL-10R1-Fc displacement, relative to hIL-10",[1],98.7 Δ%
same,pIC50 (negative log10 of the IC50),[1],8.72 M
"Grey sealpox virus interleukin-10, FLAG-tagged (ligand)","Emax (Δ%, relative to hIL-10) of inhibition of IL-1β production by LTA-stimulated human THP-1 monocytes, 48 h",[2],25.8 Δ%
same,"Emax (Δ%, relative to hIL-10) of inhibition of IL-8 production by LTA-stimulated human THP-1 monocytes, 24 h (pIC50 ND)",[2],50.1 Δ%
same,"Emax (Δ%, relative to hIL-10) of inhibition of MCP-1 production by LTA-stimulated human THP-1 monocytes, 24 h (pIC50 ND)",[2],31 Δ%
same,"pIC50 (M) of inhibition of IL-1β production by LTA-stimulated human THP-1 monocytes, 48 h",[2],11 M (pIC50)
same,"Emax (Δ%, relative to hIL-10) of stimulation of murine MC/9 mast cell proliferation (with IL-3 and IL-4), 48 h",[3],25.8 Δ%
same,"pEC50 (M) of stimulation of murine MC/9 mast cell proliferation (with IL-3 and IL-4), 48 h",[3],9.3 M (pEC50)
"Orf virus interleukin-10, FLAG-tagged (ligand)",stoichiometry N,[4],2
same,"Emax (Δ%) of hIL-10R1-Fc displacement, relative to hIL-10",[5],105 Δ%
same,pIC50 (negative log10 of the IC50),[5],9.24 M
"Pseudocowpox virus interleukin-10, FLAG-tagged (ligand)",stoichiometry N,[6],2
same,"Emax (Δ%) of hIL-10R1-Fc displacement, relative to hIL-10",[1],94.6 Δ%
same,pIC50 (negative log10 of the IC50),[1],7.66 M
"Red deerpox virus interleukin-10, FLAG-tagged (ligand)","Emax (Δ%) of hIL-10R1-Fc displacement, relative to hIL-10",[1],108 Δ%
same,pIC50 (negative log10 of the IC50),[1],9.51 M
B1,"Emax (Δ%) of hIL-10R1-Fc displacement, relative to hIL-10",[7],100 Δ%
same,pIC50 (negative log10 of the IC50),[7],8.79
